# T1: human IL-1RAcP on 293T/17-FR cells (human, UniProt Q9NPH3 21-570)
# T1 sequence (looked up): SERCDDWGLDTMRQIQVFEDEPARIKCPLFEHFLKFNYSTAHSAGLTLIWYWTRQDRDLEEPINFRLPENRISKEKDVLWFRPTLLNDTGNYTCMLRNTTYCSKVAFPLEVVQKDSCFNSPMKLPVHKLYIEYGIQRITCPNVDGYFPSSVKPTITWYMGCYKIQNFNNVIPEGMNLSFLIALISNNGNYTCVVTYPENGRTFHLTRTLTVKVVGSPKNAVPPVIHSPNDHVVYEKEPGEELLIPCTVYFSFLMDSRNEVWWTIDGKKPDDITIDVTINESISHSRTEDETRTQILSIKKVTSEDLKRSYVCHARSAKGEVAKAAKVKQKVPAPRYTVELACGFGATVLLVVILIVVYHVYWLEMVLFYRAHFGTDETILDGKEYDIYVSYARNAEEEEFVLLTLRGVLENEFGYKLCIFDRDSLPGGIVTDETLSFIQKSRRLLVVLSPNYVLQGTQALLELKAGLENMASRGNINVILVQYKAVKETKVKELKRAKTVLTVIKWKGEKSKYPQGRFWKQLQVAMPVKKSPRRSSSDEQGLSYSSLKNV
# T2: rhIL-1RAcP/Fc Chimera (human, UniProt Q9NPH3 21-359)
# T2 construct: also called P013_03; P013-03
# T2 sequence (looked up): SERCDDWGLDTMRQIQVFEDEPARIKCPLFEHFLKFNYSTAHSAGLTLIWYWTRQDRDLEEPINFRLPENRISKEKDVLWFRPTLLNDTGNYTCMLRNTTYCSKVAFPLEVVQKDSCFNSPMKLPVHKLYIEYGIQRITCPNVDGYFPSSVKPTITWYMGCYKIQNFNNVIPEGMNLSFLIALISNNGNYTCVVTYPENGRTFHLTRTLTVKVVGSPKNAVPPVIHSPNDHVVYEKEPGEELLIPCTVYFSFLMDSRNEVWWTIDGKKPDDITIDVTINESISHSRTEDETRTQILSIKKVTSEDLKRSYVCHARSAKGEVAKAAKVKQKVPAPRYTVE
# Assays:
# [1] = molecular target: T1, human IL-1RAcP on 293T/17-FR cells; experiment: cell-based or functional assay
# [2] = molecular target: T2, rhIL-1RAcP/Fc Chimera; experiment: ELISA, primary supernatant, coated hu-IL-1RAcP-Fc
# Excerpt: Microtiter plates were coated IL-1RACP and/or IL12Rβ1 protein (recombinant Fc chimeric conjugates of human IL-1RACP or IL12Rβ1). After a blocking process, specific antibodies from B-cell supernatants bind to the targets and are then detected by a POD-labeled anti-rabbit IgG antibody. The IL12Rβ1 binding was used as a counterscreen. IL-1RACP protein was tagged with a linker, huFc and His like the IL12Rβ1 protein. Antibodies which bind to the tag were positive in both assays, whereas antigen specific antibodies just bound to IL-1RACP and not to IL12Rβ1.
# 12.5 μL 0.5 μg/mL IL-1RACP protein in PBS was transferred to a microtiter plate, incubated and washed 3× with Wash Buffer. 90 μL Block Buffer was added to each well, incubated and washed. 12.5 μl Standard Antibody (rabbit mAb against IL-1RAcP, anti IL12Rbeta1 antibody: IL-12Rbeta1 antibody; GeneTex; Cat. No. GTX103917) or sample diluted in ELISA buffer was added, incubated and washed. 12.5 μl 1:5000 POD-Antibody (Anti-rabbit IgG, peroxidase-linked species-specific Fab2 fragment (from donkey) (ECL); assay dilution: 1:5000) in Elisa Buffer was added, incubated and washed. 15 μl TMB was added and 15 μl HCl was added after sufficient development. Absorbance (Optical Density O.D.) was read at 450 nm/620 nm.
# [3] = molecular target: T2, rhIL-1RAcP/Fc Chimera; experiment: ELISA, recombinant purified mAb
Binder,"functional reporter gene assay (% inhibition), 0.04 µg/mL mAb [1] [%]","functional reporter gene assay (% inhibition), 0.2 µg/mL mAb [1] [%]","functional reporter gene assay (% inhibition), 1 µg/mL mAb [1] [%]","functional reporter gene assay (% inhibition), 5 µg/mL mAb [1] [%]","primary supernatant functional assay (% inh.), NF-kB luciferase reporter [1] [%]",hu-IL1RaP ELISA (OD) [2] [OD],EC50 [3] [µg/mL]
"P013.S.01.B.F02 (antibody, V domains shown, rabbit monoclonal antibody; also called P013.A.00043.D08) VH: QEQLVESGGGLVQPEGSLTLTCTASGFSFSSNYWMCWVRQAPGKGLEWIACIYTGGSGVTYYASWAKGRFTLSKTSSTTVTLQVTSLTAADTATYFCARDLVVVTSFNLWGQGTLVTVSS VL: ALMMTQTPSPVSAAVGGTVTINCQASEDIYSNLAWYQQKPGQPPKLLIYSASTLASGVPSRFSGSGSGTEFTLTISGVQSDDAATYYCLGVCTDISVDDVYNSFGGGTEVVVK",45,59,80,93,76,3.4,–
"P013.S.01.B.F03 (antibody, V domains shown, rabbit monoclonal antibody; also called P013.A.00025.F02) VH: LEQSGGGAEGGLVKPGGSLELCCKASGFSLGSSYWICWVRQAPGKGLEWIGCIYAGSSGITYYASWVSGRFTLSRDIDQSTGCLQLNSLTAADTAMYYCARDIYASTSGYDLWGQGTLVTVSS VL: ALVMTQTPSPVSAAVGGTVTINCQASEDIYSNLAWFQQKPGQPPKLLIYQASTLASGVPSRFSGSGSGTEFTLTISGLQSDDAAAYYCLGVCTYIGADNTLYNTFGGGTEVVVK",26,59,87,94,102,3.4,0.44
"P013.S.01.B.G02 (antibody, V domains shown, rabbit monoclonal antibody; also called P013.A.00085.B11) VH: QSVEESGGRLVTPGTPLTLTCTVSGFSLSSYYMSWVRQAPGKGLEWIGYIYAAGPITYYATWAKGRFTISKTSTTVDLKITSPTTEDTATYFCVRDGSGSGTYGYNGMDLWGPGTLVTVSS VL: AYDMTQTPASVEAAVGGTVNIKCQASQSISNWLAWYQQKPGQRPKLLIYRASTLASGVSSRFKGSGSGTQFTLTISGVESADAATYYCQQGASTTDVDNVFGGGTEVVVK",43,52,41,72,71,3.7,0.049
"P013.S.01.B.H03 (antibody, V domains shown, rabbit monoclonal antibody; also called P013.A.00045.A02) VH: QSVEESGGRLVTPGTPLTLTCTVSGFSLSSYYMSWVRQAPGKGLEWIGYIYAAGPITYYATWAKGRFTISKTSTTVDLKITSPTTEDTATYFCVRDGSGSGTYGYNGMDLWGPGTLVTVSS VL: AYDMTQTPASVEAAVGGTVNIKCQASQSISNWLAWYQQKPGQPPKLLIYRASTLASGVSSRFKGSGSGTQFTLTISGVESADAATYYCQQGASTTDVDNVFGGGTEVVVK",28,49,59,60,43,3.5,0.104
"P013.S.02.B.A01 (antibody, V domains shown, rabbit monoclonal antibody; also called P013.A.00087.A07) VH: QSVEESGGRLVTPGTPLTLTCTVSGFSLSSYYMSWVRQAPGKGLEWIGYIYAAGPITYYATWAKGRFTISKTSTTVDLKITSPTTEDTATYFCVRDGSGSGTYGYNGMDLWGPGTLVTVSS VL: AYDMTQTPASVEAAVGGTVTIKCQASQSISNWLAWYQQKPGQRPKLLIYRASTLASGVSSRFKGSGSGTQFTLTISGVESADAATYYCQQGASTTDVDNVFGGGTEVVVK",7,45,67,87,67,3.8,0.073
"P013.S.02.B.B01 (antibody, V domains shown, rabbit monoclonal antibody; also called P013.A.00088.A11) VH: QSLEESGGRLVTPGTPLTLTCTVSGFSLSGYAMSWVRQAPGKGLEWIGIIYAGSGGTYYASWVKGRFTISKTSTTVDLKITSLTTEDTATYFCARAVPDDSAGKKLWGQGTLVTVSS VL: DIVMTQTPASVEAAVGGTITINCQASENIYSSLAWYQQKPGQPPKLLIYDASTLASGVSSRFKGSGSGTQFTLTISGVQSDDAATYYCQSYYCSVSSSCGYGFGGGTEVVVK",24,39,75,94,95,3.6,–
"P013.S.02.B.C05 (antibody, V domains shown, rabbit monoclonal antibody; also called P013.A.00085.F10) VH: QSLEESGGRLVTPGTPLTLSCTASGFSLSTYYMSWVRQAPGKGLEWIGYMHVGGFPVYASWAKGRFTISKTSTTVDLKITSPTIEDTATYFCARDFGPPNWTLDLWGQGTLVTVSS VL: DVVMTQTPASVEAAVGGTVTIKCQASQSISSYCSWYQQKPGQPPKLLIYRASTLESGVPSRFKGSGSGTEFTLTISDLESADAATYYCQSSYYDLLGNGFGGGTEVVVK",7,26,35,52,66,3.2,–
"P013.S.02.B.G04 (antibody, V domains shown, rabbit monoclonal antibody; also called P013.A.00015.A11) VH: QSLEESGGRLVTPGTPLTLTCTVSGFSLSRCAMIWVRQAPGKGLEWIGFIGRGGSTWYASWVNGRFTISKTSTTVDLKITSPTTEDTATYFCARDGDYSDYYTFDLWGQGTLVTVSS VL: DVVMTQTPASVSERVGGTVTIKCQASQSIGSNLAWYQQKPGQPPKLLIYGASNLESGVPSRFSGSGSGTEFTLSISGVQSADAATYYCQCSGYDTTGVFPFGGGSEVVVK",-1,0,4,-18,27,2.9,–
"P013.S.01.B.D02 (antibody, V domains shown, rabbit monoclonal antibody; also called P013.A.00022.E06) VH: LEQSGGGAEGGLVKPGGSLELCCKASGFSLTTNYWICWVRQAPGKGLEWIGCIYANSVGSTYYASWVNGRFTLSRDIDQSTGCLQLNSLTAADTAMYYCARVDPGYSFDAFDPWGPGTLVTVSS VL: ALVMTQTPSPVSAAVGGTVTINCQASEDIYSNLAWFQQKPGQPPKLLIYRASTLASGVPSRFSGSGSGTEFTLTISALQSDDAATYYCLGVRTYFNTLNNSFGGGTEVVVK",44,68,88,92,99,4,–
"P013.S.01.B.D05 (antibody, V domains shown, rabbit monoclonal antibody; also called P013.A.00085.G03) VH: EQSGGGAEGGLVKPGGSLELYCKASGFSLSSDAWICWVRQAPGKGLEWIGCIYAGSASNTYYATWVNGRFTLSRDIAQSTGCLQLNSLTAADTAMYYCARDRGYDDYGDITRLDLWGQGTLVTVSS VL: ALVLTQTPSPVSAAVGGTVTINCQASEDIYSNLAWFQQKPGQPPKLLIYRASTLASGVPSRFSGSGSGTEFTLTISGLQSDDAATYYCLGVYTYLSDLFFVFGGGTEVVVK",26,66,77,62,93,3.4,–
